Assay [1] has as its system shed GPNMB. Description: GPNMB shedding: immunoblotting of conditioned media (supernatants). It counts as cell-based, human. To be noted: conditioned media of WM2664, UACC62; 48 hours (FIG. 7A, 7B). The text has this: Shedding of membrane proteins is a common phenomenon that may affect ADC activity. To investigate potential GPNMB shedding, conditioned media collected from melanoma cell lines was immunoblotted for GPNMB (FIG. 7A). […] Shed GPNMB was also readily detected in conditioned media harvested from several other melanoma and glioblastoma cell lines examined, although a very low level of shed GPNMB was found in conditioned media harvested from A375 melanoma cells, a finding which is consistent with the low basal level of GPNMB expression by these cells.

Assay [2] has as its system GPNMB surface expression on WM2664 melanoma cells. Nature of the assay: Flow cytometry of GPNMB surface expression, WM2664 cells. The class given is cell-based, human. Particulars: for GPNMB surface expression, flow cytometry GeoMean: WM2664, CR011 (anti-GPNMB) primary antibody; for GPNMB surface expression: melanoma cells (WM2664), 48 hours (Table 37, bottom right). On the procedure: The following day, cells were treated as indicated in the figures/legends, harvested with versene (Invitrogen), washed with PBS and incubated with primary antibody (10 μg/mL) diluted in staining buffer (PBS pH 7.4, 4% FBS, 0.1% sodium azide) for 30 minutes on ice. […] After incubation with primary antibody, samples were washed with staining buffer and then incubated with secondary antibody (PE-conjugated anti-human antibody; 1:100) for 30 minutes on ice. After incubation, samples were washed with staining buffer and examined on a Becton Dickinson FACSCalibur flow cytometer (BD Immunocytometry Systems, San Jose, Calif.). Data analysis was performed with Becton Dickinson Cell Quest software and the geometric mean fluorescence intensity (GeoMean) was determined for each sample.
For the data shown in Table 37, flow cytometry was performed on intact, non-permeabilized cells using the indicated primary monoclonal antibodies. The CR011 antibody utilized was not MMAE-conjugated, but is the same antibody used to generate CR011-vcMMAE. The results are reported as GeoMeans. For the data shown in the top panel of Table 37, A375 (melanoma) or SF539 (glioblastoma) cells were treated with the indicated concentrations of MEKi (U0126), RAFKi (553013) or ERKi (FR180204) for 12, 24 or 48 hours prior to analysis. For the data shown in the bottom left panel of Table 37, SKMEL2 (melanoma) cells were treated with MEKi (U0126; 10 uM), imatinib (20 uM), p38i (p38 MAPKi SB202190; 50 uM), NH4Cl (ammonium chloride; 20 mM) or CLQ (chloroquine; 20 uM) for 48 hours prior to analysis. For the data shown in the bottom right panel of Table 37, WM2664 (melanoma) cells were treated with MON (monensin) or MMPi (GM6001) for 48 hours prior to analysis.

Assay [3] relates to GPNMB. Description: Immunoblotting for GPNMB on whole-cell lysates of cancer cell lines after drug exposure. Particulars: whole-cell lysates, 48 hours (FIG. 7). It counts as cell-based, human. The source says:
Cancer cell lines were of human origin and were obtained from the American Type Culture Collection (Manassas, Va.) and from the National Cancer Institute (Bethesda, Md.) and cultured in RPMI-1640 supplemented with 10% FBS (growth media). Sources of reagents were as follows: RAFKi (553013), MEKi (U0126), MEKi (PD98059), MEKi (444939), ERKi (FR180204), p38 MAPKi (SB202190), p38 MAPKi (SB203580), aurora kinase inhibitor (189404), JNK inhibitor (420119), MMPi (GM6001) were from EMD Chemicals (San Diego, Calif.). ERKi (A6355), RAFKi: (GW5074), ammonium chloride (NH4Cl), chloroquine, monensin, cyclohexamide and emetine were from Sigma (Saint Louis, Mo.). HSP90i (geldanamycin) was from AG Scientific (San Diego, Calif.) and imatinib (Gleevec) was purchased from a pharmacy.
Cells were seeded in 6-well tissue culture dishes at a subconfluent density and allowed to attach overnight. For harvesting cell lysates, media was removed, cells were briefly washed with serum-free media and then 1× Tris-glycine SDS sample buffer (Invitrogen, Carlsbad, Calif.) supplemented with 10 mM dithiothreitol (Sigma) was added directly to the wells. Cell lysates were then collected and boiled for 10 minutes. For preparing conditioned media, drug treatments were performed in a minimum volume of growth media (1.5 mL/well). Following 48 hours of incubation, conditioned media was collected, briefly microfuged, mixed with an equal volume of 2× Tris-glycine SDS sample buffer (Invitrogen, Carlsbad, Calif.) supplemented with 20 mM dithiothreitol (Sigma) and boiled for 10 minutes. For cell lysates, samples were quantified and an equal quantity of protein/lane was resolved on 4-20% gradient polyacrylamide gels (Invitrogen) and then transferred to nitrocellulose filters (Invitrogen). The volume of conditioned media loaded/lane was adjusted based on the protein concentration determined in the respective cell lysates. Immunoblotting was performed using standard procedures and the following primary antibodies: MARTI (sc-20032), TYRP2 (sc-25544), TYRP1 (sc-25543), PMEL17 (sc-15010), MAGEA1 (sc-20033), MCSP (sc-20162), MTf (sc-26651), MCAM (sc-18942), pp-ERK (sc-7976) and ERK (sc-94) (preceding antibodies were purchased from Santa Cruz Biotechnologies, Santa Cruz, Calif.), GPNMB (AF2550; R & D Systems, Minneapolis Minn.), actin (A5060; Sigma). Following incubation with the appropriate horseradish peroxidase-conjugated secondary antibodies, enhanced chemiluminescence (GE Healthcare, Chalfont St. Giles, United Kingdom) was used for detection.

In assay [4] the test system is UACC62 melanoma cells. Nature of the assay: In vitro growth-inhibition/cytotoxicity assay, UACC62 cells. It counts as cell-based, human. To be noted: 0.16 μg/mL, 72 hours, trypan blue.
Assay [5] concerns the target T1, GPNMB (Homo sapiens, UniProt Q14956).
T1 construct: V5His; made in house
T1 sequence (Q14956 23-492): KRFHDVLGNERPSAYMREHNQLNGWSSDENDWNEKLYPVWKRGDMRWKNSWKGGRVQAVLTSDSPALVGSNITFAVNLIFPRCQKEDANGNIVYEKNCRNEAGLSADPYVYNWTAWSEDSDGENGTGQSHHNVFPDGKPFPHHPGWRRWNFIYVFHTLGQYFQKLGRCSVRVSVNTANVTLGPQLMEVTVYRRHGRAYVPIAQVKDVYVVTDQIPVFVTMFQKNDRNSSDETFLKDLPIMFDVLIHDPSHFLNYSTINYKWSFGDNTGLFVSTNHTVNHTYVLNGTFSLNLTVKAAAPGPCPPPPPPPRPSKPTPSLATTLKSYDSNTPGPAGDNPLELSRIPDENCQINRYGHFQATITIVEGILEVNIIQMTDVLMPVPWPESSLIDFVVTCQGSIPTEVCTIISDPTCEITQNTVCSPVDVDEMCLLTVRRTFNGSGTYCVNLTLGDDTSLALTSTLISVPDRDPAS
Nature of the assay: Epitope binning of anti-GPNMB antibodies (competitive binding). The source says:
Certain antibodies, described herein were binned in accordance with the protocol described in U.S. Patent Application Publication No. 20030157730. […] Competitive binding by antibodies from […] supports antibody specificity for similar or adjacent epitopes. Non competitive binding supports antibody specificity for unique epitopes.
Three bins were created to further test the binding of six anti-GPNMB antibodies. Bin 1 included GPNMB antibodies (1.2.1), (1.10.1), and (2.22.1). Bin 2 included GPNMB antibodies (2.3.1) and (1.15.1), and Bin 3 included GPNMB antibody (2.10.1). The results of the binning assays are provided below in Tables 4 and 5.

In assay [6] the test system is CG56972 expressing cells. Description: Effect of naked mAb on CG56972 expressing cells in vitro. The class given is cell-based. To be noted: naked IgG2 mAb. The text has this:
(§1) Fully human monoclonal antibodies (mAb)-IgG2 to CG56972/GPNMB, an antigen predominantly found on the surface of melanoma and brain tumor cells, were generated. […] Thus it was examined whether isotype switching from an IgG2 to an IgG1 might enable the mAb to kill human melanoma cells through ADCC effector functions.

Assay [7] relates to shed GPNMB. Nature of the assay: Immunoprecipitation of shed GPNMB. The class given is binding, human.
Assay [8] has as its system CG56972 expressing cells. Nature of the assay: Effect of naked mAb on CG56972 expressing cells in vivo. To be noted: naked IgG2 mAb.
Excerpt: as §1

“Also recorded” adds a separate entry of the source.

As to `CNC(=O)[C@H](Cc1c[nH]c2ccccc12)NC(=O)[C@@H](CC(=O)NO)CC(C)C` [GM6001], in assay [1], the GPNMB shedding entry is given as “decreased or eliminated”. The “GPNMB surface expression, flow cytometry GeoMean” value worked out at 55.9 in assay [2] (MMPi 25 uM), 68.9 in assay [2] (MMPi 50 uM) and 66.8 in assay [2] (MMPi 100 uM). In addition, in assay [2], the GPNMB surface expression entry is “increased GPNMB surface expression”.

Regarding `CC[C@@]1([C@@H]2O[C@@H]([C@H]3O[C@@](O)(CO)[C@H](C)C[C@@H]3C)C[C@@H]2C)CC[C@H]([C@]2(C)CC[C@]3(C[C@H](O)[C@@H](C)[C@@H]([C@@H](C)[C@@H](OC)[C@H](C)C(=O)O)O3)O2)O1` [monensin], in assay [1], the GPNMB shedding entry is “decreased or eliminated; also recorded: strong inhibition”. For the same molecule, in assay [2] (MON 250 nM), the “GPNMB surface expression, flow cytometry GeoMean” value is 88.9. For the same molecule, the “GPNMB surface expression, flow cytometry GeoMean” value in assay [2] (MON 500 nM) was determined as 86.8. In addition, the GPNMB surface expression result in assay [2] is on record as “increased GPNMB surface expression”. Besides, in assay [3], the “faster migrating ~110 kDa GPNMB species” value is listed as “increased the expression” and the “slowest migrating cell-associated ~130 kDa GPNMB species” value is “decreased or eliminated”.

For the molecule “CR011-vcMMAE: antibody-drug conjugate of anti-GPNMB antibody CR011 with Auristatin E (vcMMAE) through a protease-cleavable linker”, the growth-inhibition result in assay [4] (UACC62 cells not pretreated with the MEK inhibitor) is given as “little growth-inhibition”; in assay [4] (UACC62 cells pretreated with the MEK inhibitor (U0126 1 μM, 48 hours)), “strong growth-inhibition”.

As for “CR011: fully human monoclonal antibody that specifically binds to GPNMB; VH SEQ ID NO: 20, VL SEQ ID NO: 29”, the epitope bin result in assay [5] (Table 4) was “VIII”; in assay [5] (Table 5, Cut-off = 90), “VIII”; in assay [5] (six anti-GPNMB antibodies, three bins), “Bin 2”. The “binning assay signal (antibody pair matrix)” value (“binning assay signal” for short) was −19 in assay [5] (Table 4, paired with column BB); 91 in assay [5] (Table 4, paired with column antibody 1.1); 10 in assay [5] (Table 4, paired with column antibody 1.11); 15 in assay [5] (Table 4, paired with column antibody 1.12); 13 in assay [5] (Table 4, paired with column antibody 1.13); 0 in assay [5] (Table 4, paired with column antibody 1.15). For the same molecule, the “binning assay signal” value in assay [5] (Table 4, paired with column antibody 1.2) was found to be 79; in assay [5] (Table 4, paired with column antibody 1.3) it was 71; in assay [5] (Table 4, paired with column antibody 1.5), 15; in assay [5] (Table 4, paired with column antibody 1.7) it was 21; in assay [5] (Table 4, paired with column antibody 1.8) it was 8; in assay [5] (Table 4, paired with column antibody 1.9) it was 12. Further, the “binning assay signal” value in assay [5] (Table 4, paired with column xV5) worked out at 89; in assay [5] (Table 5, paired with column BB), 59; in assay [5] (Table 5, paired with column antibody 1.1) it was 127; in assay [5] (Table 5, paired with column antibody 1.11), 19; in assay [5] (Table 5, paired with column antibody 1.12) it was 21; in assay [5] (Table 5, paired with column antibody 1.13) it was 5. The “binning assay signal” value is on record as 0 in assay [5] (Table 5, paired with column antibody 1.15); 90 in assay [5] (Table 5, paired with column antibody 1.2); 51 in assay [5] (Table 5, paired with column antibody 1.3); −9 in assay [5] (Table 5, paired with column antibody 1.5); 17 in assay [5] (Table 5, paired with column antibody 1.7); 12 in assay [5] (Table 5, paired with column antibody 1.8). Further, the “binning assay signal” value turned out to be 19 in assay [5] (Table 5, paired with column antibody 1.9) and 125 in assay [5] (Table 5, paired with column xV5). The “effect on CG56972 expressing cells” value in assay [6] and in assay [8] was “no effect” each time. For the same molecule, the “recognition of shed GPNMB” value in assay [7] is “recognize shed GPNMB”.

The values are drawn from patent publication US20140314780A1, “Compositions Using Antibodies Directed to GPNMB and Uses Thereof” (Celldex Therapeutics, Inc., priority 2008, published 2014).
